Experimental data reported in US7364741B1, “Peptides of human Papilloma virus for use in human T cell response inducing compositions” (priority 1992, dated 2008).
Where two headings read alike, the source gives them in different places.

Assays:
[1] = biological target: T1, HLA-A2.1 (Homo sapiens, UniProt P04439, D140Y/D185E/D98H/E176V/E277Q/G131W/G231S/I119V/I121R/I166T/I218V/L300P/L318F/N151K/N90K/P208A/P217A/Q86G/Q94H/R138H/R169H/T345S); type: cell-based
T1 construct: endogenous in cells; host or cells: 174CEM.T2
Description: Of all peptides a dilution of 1 mg/ml in 0.9% NaCl was made.
174CEM.T2 cells were cultured in Iscovel's modified Dulbecco's medium (Biochrom KG Seromed Berlin, Germany: F0465) supplemented with 100 IU/ml penicillin (Biocades Pharma, Leiderdorp, The Netherlands), 100 μg/ml kanamycin (Sigma St. Louis, USA:K-0254), 2 mM glutamine (ICN Biomedicals Inc. Costa Mesa, Calif., USA:15-801-55) and 10% fetal calf serum (FCS, Hyclone Laboratories Inc. Logan, Utah, USA:A-1115-L). Cells were cultured at a density of 2.5×10^5/ml during 3 days at 37° C., 5% CO2 in humified air.
174CEM.T2 cells were washed twice in culture medium without FCS and put in serum-free culture medium to a density of 2×10^6 cells/ml. Of this suspension 40 μl was put into a V bottomed 96 well plate (Greiner GmbH, Frickenhausen, Germany: 651101) together with 10 μl of the individual peptide dilutions (of 1 mg/ml). The end concentration is 200 μg/ml peptide with 8×10^4 174CEM.T2 cells. This solution was gently agitated for 3 minutes after which an incubation time of 16 hours at 37° C., 5% CO2 in humified air took place. Then cells were washed once with 100 μl 0.9% NaCl, 0.5% bovine serum albumin (Sigma St. Louis, USA: A-7409), 0.02% NaN3 (Merck Darmstadt, Germany:822335). After a centrifuge round of 1200 rpm the pellet was resuspended in 50 μl of saturating amounts of HLA-A2.1 specific mouse monoclonal antibody BB7.2 for 30 minutes at 4° C. Then cells were washed twice and incubated for 30 minutes with F(ab)2 fragments of goat anti-mouse IgG that had been conjugated with […] (Tago Inc Burlingame, Calif., USA: 4350) in a dilution of 1:40 and a total volume of 25 μl.
After the last incubation, cells were washed twice and fluorescence was measured at 488 nanometer on a FACScan flow-cytometer (Becton Dickinson, Franklin Lakes, N.J., USA).
The 174CEM.T2 cell line expresses “empty” and unstable HLA-A2.1 molecules that can be stabilized when a peptide is binding to the peptide presenting groove of these molecules. […] This leads to an increase in cell surface expression of the HLA-A2.1 molecule.
With background fluorescence level (without adding peptides) set on a Fluorescence Index level of 0, binding of a peptide was regarded positive when the level of fluorescence was ≧0.5.

[2] = biological target: T2, HLA-A3.2 (Homo sapiens, UniProt P04439); type: binding; details: HLA-A3.2; IC50 of standard divided by IC50 of tested peptide; cysteines synthesized as alanine
T2 construct: endogenous in cells; host or cells: EBV transformed cell line GM3107 (protein purified from NP40 lysate)
T2 sequence (P04439 25-365): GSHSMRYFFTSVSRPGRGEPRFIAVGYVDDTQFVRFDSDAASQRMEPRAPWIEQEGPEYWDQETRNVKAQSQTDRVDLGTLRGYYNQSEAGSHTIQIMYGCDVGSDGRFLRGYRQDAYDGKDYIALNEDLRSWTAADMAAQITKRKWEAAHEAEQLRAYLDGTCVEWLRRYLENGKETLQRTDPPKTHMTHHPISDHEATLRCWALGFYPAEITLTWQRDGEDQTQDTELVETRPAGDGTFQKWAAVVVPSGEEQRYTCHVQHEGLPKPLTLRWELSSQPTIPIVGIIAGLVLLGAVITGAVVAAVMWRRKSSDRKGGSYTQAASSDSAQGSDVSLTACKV
T2 sequence (P61769 21-119, further chain): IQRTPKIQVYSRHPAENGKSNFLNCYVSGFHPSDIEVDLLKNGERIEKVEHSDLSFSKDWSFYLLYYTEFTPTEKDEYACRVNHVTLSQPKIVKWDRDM
Text: (§1) The method utilizes purified class I molecules and radiolabeled synthetic probes based on consensus peptides. Competitor peptides tested for their binding to the class I molecules compete for this binding with the radiolabeled consensus peptides. The HLA-A1, A2.1, A3.2, A11.2, and A24 molecules were isolated from the following cell lines, respectively: the EBV (Eppstein Barr Virus) transformed cell line Steinlin, the EBV transformed cell line JY, the EBV transformed cell line GM3107, the cell line BVR and the EBV transformed cell line KT3. After large scale culture, cells were lysed in NP40 (Fluka Biochemika, Buchs, Switzerland) and the lysate was passed over two pre-columns of inactivated sepharose CL 4B and Prot A Sepharose. Class I molecules were then purified from the cell lysate by affinity chromatography using Prot A Sepharose beads conjugated with B2.23.2 (anti-HLA-B and HLA-C) and anti-human HLA. The lysate was first depleted of B and C molecules by repeated passage over the B2.23.2 column.
(§2) After two days at 23° C. the percent of MHC-bound radioactivity was measured by size exclusion chromatography on a TSK2000 gel filtration as described by Sette et al. (1992).
(§3) Probe peptides were iodinated by using the Chloramine T method described by Buus et al. (1987). The sequences of the probe peptides used for the aforementioned HLA molecules were […] (SEQ ID NO:76) for A1, […] (SEQ ID NO:77) for A2.1, […] (SEQ ID NO:78) for A3.2, […] (SEQ ID NO:79) for A11.2, and […] (SEQ ID NO:80) for A24.
(§4) Each competitor peptide was tested in two to four completely independent experiments. Since cysteine containing peptides are susceptible to (air) oxidation during synthesis and handling, these peptides were synthesized with an alanine instead of a cysteine.

[3] = tested on: HLA-A11.2; experiment: Immunochemical peptide-MHC binding assay, purified HLA-A11.2, radiolabeled probe […]; set-up: species or system human; details: IC50 of standard divided by IC50 of tested peptide, cysteines synthesized as alanine
Text: as §1, §2, §3, §4

[4] = HPV18 peptides, 200 μg/ml peptide, 16 hours, 174CEM.T2 cells
[5] = HPV18 peptides, 200 μg/ml peptide, 16 hours, 174CEM.T2 cells, background set on 0, binding positive when ≧0.5
[6] = HPV16 peptides, 200 μg/ml peptide, 16 hours, 174CEM.T2 cells
[7] = HPV16 peptides, 200 μg/ml peptide, 16 hours, 174CEM.T2 cells, background set on 0, binding positive when ≧0.5

| Sequence | MF (mean HLA-A2.1 fluorescence) [1, 4] | FI (Fluorescence Index) [1, 5] | MF (mean HLA-A2.1 fluorescence) [1, 6] | FI (Fluorescence Index) [1, 7] | also measured |
| --- | --- | --- | --- | --- | --- |
| KLPDLCTEL [HPV18 peptide 1, residues 13-21 of HPV18 protein E6] | 439.3 | 2.1 |  |  |  |
| KTVLELTEV [HPV18 peptide 5, residues 36-44 of HPV18 protein E6] | 467.5 | 2.3 |  |  |  |
| LCTELQTTI [HPV16 peptide 3, residues 22-30 of HPV16 protein E6] |  |  | 113.6 | 0.7 |  |
| LFLNTLSFV [HPV18 peptide 13, residues 89-97 of HPV18 protein E7] | 360.3 | 1.6 |  |  |  |
| LLMGTLGIV [HPV16 peptide 16] |  |  |  |  | FI (Fluorescence Index) [1]: 0.8; MF (mean HLA-A2.1 fluorescence) [1]: 118.8 |
| LSFVCPWCA [HPV18 peptide 14, residues 94-102 of HPV18 protein E7] | 262.0 | 0.9 |  |  |  |
| LTNTGLYNL [HPV18 peptide 9, residues 93-101 of HPV18 protein E6] | 352.5 | 1.5 |  |  |  |
| PLCDLLIRC [HPV16 peptide 10, residues 102-110 of HPV16 protein E6] |  |  | 204.8 | 2.1 |  |
| QLCTELQTT [HPV16 peptide 2, residues 21-29 of HPV16 protein E6] |  |  | 211.9 | 2.2 |  |
| QLFLNTLSF [HPV18 peptide 12, residues 88-96 of HPV18 protein E7] | 258.2 | 0.8 |  |  |  |
| QQYNKPLCD [residues 97-105 of HPV16 protein E6] |  |  |  |  | binding ratio to standard [2]: 0.0045 |
| RHYCYSLYG [residues 84-92 of HPV16 protein E6] |  |  |  |  | binding ratio to standard [2]: 0.0036 |
| RLCVQSTHV [HPV16 peptide 14, residues 66-74 of HPV16 protein E7] |  |  | 250.0 | 2.8 |  |
| SLQDIEITC [HPV18 peptide 2, residues 24-32 of HPV18 protein E6] | 243.9 | 0.7 |  |  |  |
| SLYGTTLEQ [residues 89-97 of HPV16 protein E6] |  |  |  |  | binding ratio to standard [2]: 0.0080 |
| TGRCMSCCR [residues 140-148 of HPV16 protein E6] |  |  |  |  | binding ratio to standard [3]: 0.0012 |
| TIHDIILEC [HPV16 peptide 6, residues 29-37 of HPV16 protein E6] |  |  | 184.5 | 1.8 |  |
| TLEDLLMGT [HPV16 peptide 15, residues 78-86 of HPV16 protein E7] |  |  | 182.8 | 1.8 |  |
| TLQDIVLHL [HPV18 peptide 10] |  |  |  |  | FI (Fluorescence Index) [1]: 2.7; MF (mean HLA-A2.1 fluorescence) [1]: 519.6 |
| TTLEQQYNK [residues 93-101 of HPV16 protein E6] |  |  |  |  | binding ratio to standard [2]: 0.0780 |
| VCPICSQKP [residues 90-98 of HPV16 protein E7] |  |  |  |  | binding ratio to standard [3]: 0.0012 |
| YMLDLQPET [HPV16 peptide 12, residues 11-19 of HPV16 protein E7] |  |  | 283.9 | 3.3 |  |
